According to patent US20100183542A1, “Synergism Between Activated Immune Cells and Conventional Cancer Therapies” (UNIVERSITY OF SOUTH ALABAMA, priority 2006, published 2010):

Experiments:
[1] = tested on: Hela cells; experiment: Hela cells pre-sensitized with cytokines for 2 days, fresh medium 3 days, WST-1 on day 5 (Experiments 9, 10); assay type: cell-based; conditions: for effect on the maximum cytotoxic effect of IFN-γ: Experiment 9: in combination with IFN-γ
Experimental: Hela cells were pre-sensitized with IFN-γ, and IFN-γ in combination with other cytokines for 2 days. The pre-sensitized Hela cells were then cultured with fresh complete RPMI 1640 for another 3 days. Cell viability was measured by WST-1 assay on day 5.
The pre-sensitized Hela cells were cultured with fresh complete RPMI 1640 for another 3 days. Cell viability was measured by WST-1 assay on day 5.

[2] = tested on: Hela cells; experiment: Hela cells pre-sensitized with cytokines, 4 Gy gamma radiation, WST-1 on day 5 (Experiments 7, 8, 11, 12, 13); assay type: cell-based
Experimental: (§1) Hela cells were pre-sensitized for 2 days with each cytokine listed on FIG. 29. The pre-sensitized Hela cells were thereafter trypsinzed, washed, and irradiated with 4 Gy of gamma radiation. The irradiated cells were plated in 96-well plate at 5000 cells per well in 200 μl of complete medium. Cell viability was measured by WST-1 reagent on day 5.
as §1, with “by individual cytokines, combinations or all cytokines.” for “with each cytokine listed on FIG. 29.”, “harvested,” for “trypsinzed,”, “RPMI 1640” for “complete”, “assay” for “reagent”
Hela cells were pre-sensitized with various combinations of cytokines identified in FIG. 33. The pre-sensitized Hela cells were made single suspension and irradiated by 4 Gy of gamma radiation. The irradiated cells were plated in 96-well plate at 5000 cells per well in 200 μl RPMI 1640 medium. Cell viability was measured by WST-1 assay on day 5.
Hela cells were pre-sensitized for 2 days with CD4+ T cells, a combination of [IFN-γ/TNF-α/IL-2/Il-6], or a combination of all cytokines. The pre-sensitized cells were thereafter placed into a single suspension and irradiated by 4 Gy of gamma radiation. The irradiated cells were plated in 96-well plate at 5000 cells per well in 200 μl RPMI 1640 medium. Cell viability was measured by WST-1 assay on day 5.
Another experiment was performed similar to experiment 16, except that [IFN-γ/TNF-α] was used instead of the combination of [IFN-γ/TNF-α/Il-2/Il-6].

GM-CSF: cytokine
effect on the maximum cytotoxic effect of IFN-γ [1]: added effect

IFN-γ: cytokine
contribution to enhanced effect of gamma irradiation ([2]; Experiment 7: each cytokine 2 days, 4 Gy): major factor contributing to the enhanced effect of gamma irradiation
synergistic effect with gamma radiation ([2]; Experiment 11: 4 Gy): Synergistic effect

TNF-α
effect on the maximum cytotoxic effect of IFN-γ [1]: added effect

B1: IFN-γ: cytokine (protein, UniProt P01579 24-161, looked up)
Interferon gamma: QDPYVKEAENLKKYFNAGHSDVADNGTLFLGILKNWKEESDRKIMQSQIVSFYFKLFKNFKDDQSIQKSVETIKEDMNVKFFNSNKKKRDDFEKLTNYSVTDLNVQRKAIHELIQVMAELSPAAKTGKRKRSQMLFRG
contribution to cytotoxicity of gamma irradiation ([2]; Experiment 8: individual cytokines, combinations or all cytokines 2 days, 4 Gy): contributes to enhance cytotoxicity of gamma irradiation
contribution to cytotoxicity ([1]; Experiment 9: 2 days pre-sensitization, 3 days fresh medium): contributes to enhance cytotoxicity of gamma irradiation
